Assay results published in patent US20030162712A1.

Molecular target: naturally occurring Tek as expressed on human endothelial cells (human) (UniProt Q02763)
Assay: flow cytometry on HMVEC-d, mAb 5 µg/ml, competitor human Ang2 10 µg/ml; negative control antibody

Chain of UniProt Q02763 (Q02763 23-1124): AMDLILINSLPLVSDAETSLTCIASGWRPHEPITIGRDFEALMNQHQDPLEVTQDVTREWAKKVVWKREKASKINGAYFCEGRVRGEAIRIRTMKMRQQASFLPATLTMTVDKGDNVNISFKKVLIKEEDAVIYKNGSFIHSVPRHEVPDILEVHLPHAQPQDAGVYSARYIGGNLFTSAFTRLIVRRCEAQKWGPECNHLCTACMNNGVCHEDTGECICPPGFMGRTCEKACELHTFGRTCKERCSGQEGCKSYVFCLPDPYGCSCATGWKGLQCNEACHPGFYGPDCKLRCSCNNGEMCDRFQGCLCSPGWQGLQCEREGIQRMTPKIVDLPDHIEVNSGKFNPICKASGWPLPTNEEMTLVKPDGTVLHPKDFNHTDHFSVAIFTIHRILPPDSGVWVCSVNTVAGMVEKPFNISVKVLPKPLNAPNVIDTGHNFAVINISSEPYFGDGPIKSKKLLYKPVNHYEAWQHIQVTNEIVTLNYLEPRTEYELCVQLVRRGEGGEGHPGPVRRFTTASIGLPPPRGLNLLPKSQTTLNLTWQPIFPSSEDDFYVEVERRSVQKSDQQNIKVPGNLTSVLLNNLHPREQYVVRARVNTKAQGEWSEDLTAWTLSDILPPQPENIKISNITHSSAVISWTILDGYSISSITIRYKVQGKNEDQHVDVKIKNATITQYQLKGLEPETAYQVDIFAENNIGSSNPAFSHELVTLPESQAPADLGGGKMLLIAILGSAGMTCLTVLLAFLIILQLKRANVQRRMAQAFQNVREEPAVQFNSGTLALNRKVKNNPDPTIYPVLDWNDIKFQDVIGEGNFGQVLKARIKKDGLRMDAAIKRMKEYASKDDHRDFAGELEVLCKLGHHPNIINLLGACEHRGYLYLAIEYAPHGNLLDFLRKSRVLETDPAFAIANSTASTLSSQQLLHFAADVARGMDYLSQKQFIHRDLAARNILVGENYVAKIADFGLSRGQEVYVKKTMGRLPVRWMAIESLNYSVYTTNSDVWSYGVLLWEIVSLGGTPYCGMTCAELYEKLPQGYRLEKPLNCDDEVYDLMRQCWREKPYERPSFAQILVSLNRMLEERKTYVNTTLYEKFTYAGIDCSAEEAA

Percent Inhibition of Antibody Binding by Ang2: 0%
Substance: IgG1 negative control mAb (MOPC21) (antibody)
